Measurements reported in paper PMC2756588.

T1: Bzz1-2, P38822
T1 sequence (P38822 568-633, looked up): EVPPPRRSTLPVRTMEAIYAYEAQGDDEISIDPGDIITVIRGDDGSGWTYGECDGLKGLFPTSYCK

T2: Bzz1-1, P38822
T2 sequence (P38822 478-572, looked up): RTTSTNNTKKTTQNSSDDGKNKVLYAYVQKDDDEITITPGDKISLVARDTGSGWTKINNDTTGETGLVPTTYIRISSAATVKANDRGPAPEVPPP

T3: Sla1-3, P32790
T3 sequence (P32790 344-424, looked up): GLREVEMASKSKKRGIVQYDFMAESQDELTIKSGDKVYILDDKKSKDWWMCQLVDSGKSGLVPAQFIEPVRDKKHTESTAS

T4: Hof1, Q05080
T4 sequence (Q05080 590-669, looked up): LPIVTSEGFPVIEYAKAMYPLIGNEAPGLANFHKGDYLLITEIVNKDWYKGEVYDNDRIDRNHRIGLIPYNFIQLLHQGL

T5: Pin3, Q06449
T5 sequence (Q06449 53-122, looked up): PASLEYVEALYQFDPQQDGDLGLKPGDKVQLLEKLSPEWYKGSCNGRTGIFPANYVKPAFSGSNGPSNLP

T6: Hse1, P38753
T6 sequence (P38753 208-285, looked up): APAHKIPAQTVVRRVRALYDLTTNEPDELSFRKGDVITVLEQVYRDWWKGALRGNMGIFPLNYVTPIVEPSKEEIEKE

T7: Lsb4, P32793
T7 sequence (P32793 402-468, looked up): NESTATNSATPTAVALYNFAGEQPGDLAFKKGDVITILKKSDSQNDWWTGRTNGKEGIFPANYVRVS

T8: Bbc1, P47068
T8 sequence (P47068 1-78, looked up): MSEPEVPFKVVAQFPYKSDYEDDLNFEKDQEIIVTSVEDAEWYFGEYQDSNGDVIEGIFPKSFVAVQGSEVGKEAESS

T9: Bud14, P27637
T9 sequence (P27637 247-328, looked up): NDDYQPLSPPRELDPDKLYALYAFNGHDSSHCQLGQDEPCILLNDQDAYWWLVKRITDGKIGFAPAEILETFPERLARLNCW

T10: Lsb3, P43603
T10 sequence (P43603 385-451, looked up): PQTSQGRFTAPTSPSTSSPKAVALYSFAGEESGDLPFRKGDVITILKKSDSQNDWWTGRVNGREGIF

T11: Myo5, Q04439
T11 sequence (Q04439 1072-1160, looked up): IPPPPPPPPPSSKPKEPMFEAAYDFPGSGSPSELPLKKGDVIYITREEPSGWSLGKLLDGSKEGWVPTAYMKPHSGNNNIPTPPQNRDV

T12: Fus1, P11710
T12 sequence (P11710 432-512, looked up): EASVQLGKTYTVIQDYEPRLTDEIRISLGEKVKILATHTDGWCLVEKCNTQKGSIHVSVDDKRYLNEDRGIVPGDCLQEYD

T13: Boi1, P38041
T13 sequence (P38041 1-86, looked up): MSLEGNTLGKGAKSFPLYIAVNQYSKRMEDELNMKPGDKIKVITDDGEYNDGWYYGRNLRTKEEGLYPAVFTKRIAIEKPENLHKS

T14: Abp1, P15891
T14 sequence (P15891 535-592, looked up): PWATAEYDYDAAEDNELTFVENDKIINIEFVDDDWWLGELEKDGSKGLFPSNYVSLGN

T15: Nbp2, Q12163
T15 sequence (Q12163 103-180, looked up): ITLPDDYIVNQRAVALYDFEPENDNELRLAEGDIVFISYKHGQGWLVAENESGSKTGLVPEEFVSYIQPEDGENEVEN

T16: Sla1-2, P32790
T16 sequence (P32790 60-140, looked up): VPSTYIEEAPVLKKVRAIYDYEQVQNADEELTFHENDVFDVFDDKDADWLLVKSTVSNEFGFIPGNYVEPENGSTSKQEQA

T17: Pex13, P80667
T17 sequence (P80667 295-386, looked up): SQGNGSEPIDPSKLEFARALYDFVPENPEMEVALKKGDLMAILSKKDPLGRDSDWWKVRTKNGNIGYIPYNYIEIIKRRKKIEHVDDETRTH

T18: Boi2, P39969
T18 sequence (P39969 32-116, looked up): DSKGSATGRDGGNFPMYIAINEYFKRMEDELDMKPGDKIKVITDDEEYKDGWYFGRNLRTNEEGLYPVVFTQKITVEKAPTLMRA

T19: Cyk3, Q07533
T19 sequence (Q07533 1-83, looked up): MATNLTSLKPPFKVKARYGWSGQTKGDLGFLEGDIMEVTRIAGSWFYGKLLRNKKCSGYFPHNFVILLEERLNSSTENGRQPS

T20: Lsb1, P53281
T20 sequence (P53281 45-122, looked up): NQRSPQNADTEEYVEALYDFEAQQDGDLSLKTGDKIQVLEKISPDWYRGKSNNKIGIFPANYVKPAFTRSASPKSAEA

T21: Cdc25, P04821
T21 sequence (P04821 50-136, looked up): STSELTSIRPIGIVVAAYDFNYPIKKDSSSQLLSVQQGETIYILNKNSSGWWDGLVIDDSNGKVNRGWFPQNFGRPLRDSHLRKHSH


How the values were obtained:
Assay in all cases: SPOT array
[1] = target: T1, Bzz1-2, P38822; settings: median of control spots 4538
[2] = target: Bem1-1, P29366; settings: median of control spots 4282
[3] = target: T2, Bzz1-1, P38822; settings: median of control spots 4446
[4] = target: Sho1, P40073; settings: median of control spots 1148
[5] = target: T3, Sla1-3, P32790; settings: median of control spots 5475
[6] = target: T4, Hof1, Q05080; settings: median of control spots 4086
[7] = target: Rvs167, P39743; settings: median of control spots 2707
[8] = target: T5, Pin3, Q06449; settings: median of control spots 2171
[9] = target: T6, Hse1, P38753; settings: median of control spots 1727
[10] = target: T7, Lsb4, P32793; settings: median of control spots 397
[11] = target: T8, Bbc1, P47068; settings: median of control spots 796
[12] = target: T9, Bud14, P27637; settings: median of control spots 956
[13] = target: T10, Lsb3, P43603; settings: median of control spots 406
[14] = target: T11, Myo5, Q04439; settings: median of control spots 471
[15] = target: T12, Fus1, P11710; settings: median of control spots 1200
[16] = target: T13, Boi1, P38041; settings: median of control spots 1162
[17] = target: T14, Abp1, P15891; settings: median of control spots 935
[18] = target: T15, Nbp2, Q12163; settings: median of control spots 357
[19] = target: T16, Sla1-2, P32790; settings: median of control spots 712
[20] = target: T17, Pex13, P80667; settings: median of control spots 1341
[21] = target: GST; settings: median of control spots 978
[22] = target: T18, Boi2, P39969; settings: median of control spots 1161
[23] = target: T19, Cyk3, Q07533; settings: median of control spots 1451
[24] = target: Myo3, P36006; settings: median of control spots 468
[25] = target: T20, Lsb1, P53281; settings: median of control spots 388
[26] = target: Bem1-2, P29366; settings: median of control spots 4347
[27] = target: T21, Cdc25, P04821; settings: median of control spots 969

Chain of Rvs167, P39743 (P39743 419-482): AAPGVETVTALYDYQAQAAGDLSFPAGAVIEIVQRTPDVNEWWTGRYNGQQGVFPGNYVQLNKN
Chain of Bem1-2, P29366 (P29366 139-227): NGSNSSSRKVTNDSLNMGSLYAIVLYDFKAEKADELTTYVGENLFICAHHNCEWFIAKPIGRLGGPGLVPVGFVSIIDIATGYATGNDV
Chain of Sho1, P40073 (P40073 287-367): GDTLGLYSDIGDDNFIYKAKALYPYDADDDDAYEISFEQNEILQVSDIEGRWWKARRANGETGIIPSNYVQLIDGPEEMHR
Chain of Bem1-1, P29366 (P29366 55-141): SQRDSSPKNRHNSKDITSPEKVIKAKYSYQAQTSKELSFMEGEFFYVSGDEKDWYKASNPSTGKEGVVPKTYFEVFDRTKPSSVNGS

| Binder | SPOT intensity [1] | SPOT intensity [2] | SPOT intensity [3] | SPOT intensity [4] | SPOT intensity [5] | SPOT intensity [6] | SPOT intensity [7] | SPOT intensity [8] | SPOT intensity [9] | SPOT intensity [10] | SPOT intensity [11] | SPOT intensity [12] | SPOT intensity [13] | SPOT intensity [14] | SPOT intensity [15] | SPOT intensity [16] | SPOT intensity [17] | SPOT intensity [18] | SPOT intensity [19] | SPOT intensity [20] | other results |
| --- | --- | --- | --- | --- | --- | --- | --- | --- | --- | --- | --- | --- | --- | --- | --- | --- | --- | --- | --- | --- | --- |
| VGFRLALKFPSRITG | 109 | 0 | 3 | 718 | 124 | 25 | 6 | 150 | 113 | 207 | 663 | 29 | 166 | 69 | 430 | 152 | 489 | 1100 | 52 | 127 | SPOT intensity [21]: 0; SPOT intensity [22]: 70; SPOT intensity [23]: 25; SPOT intensity [24]: 164; SPOT intensity [25]: 452; SPOT intensity [26]: 0; SPOT intensity [27]: 490 |
| QFDLKMPSKPIHNLK | 0 | 0 | 0 | 7 | 0 | 0 | 6 | 68 | 0 | 27 | 0 | 0 | 9 | 29 | 0 | 0 | 41 | 0 | 2 | 95 | SPOT intensity [21]: 0; SPOT intensity [22]: 2; SPOT intensity [23]: 0; SPOT intensity [24]: 34; SPOT intensity [25]: 1; SPOT intensity [26]: 0; SPOT intensity [27]: 1 |
| FLIKFTPKFPQSIDH | 9 | 1 | 0 | 304 | 13 | 24 | 2 | 41 | 25 | 63 | 44 | 5 | 32 | 27 | 100 | 7 | 417 | 418 | 10 | 73 | SPOT intensity [21]: 0; SPOT intensity [22]: 0; SPOT intensity [23]: 0; SPOT intensity [24]: 77; SPOT intensity [25]: 46; SPOT intensity [26]: 0; SPOT intensity [27]: 209 |
| FVLRYYILIPHEQWD | 2 | 2 | 1 | 5 | 3 | 5 | 0 | 9 | 2 | 0 | 15 | 1 | 0 | 0 | 42 | 6 | 0 | 47 | 3 | 10 | SPOT intensity [21]: 0; SPOT intensity [22]: 1; SPOT intensity [23]: 0; SPOT intensity [24]: 0; SPOT intensity [25]: 2; SPOT intensity [26]: 13; SPOT intensity [27]: 59 |
